Experimental data reported in paper PMC5859096.
pKd: −log10 of the molar value.

Legend:
[1] = system: T1, His6-BldC (Streptomyces coelicolor), ORF:188ed25c; assay: EMSA; settings: FP: 25 mM Tris pH 7.5, 150 mM NaCl, 1 nM F-DNA, 25 C; footprinting: 10 mM Tris HCl pH 7.8, 150 mM NaCl, 2 mM DTT, 1 ug poly(dI-dC), 10% glycerol (none for …)
T1 sequence: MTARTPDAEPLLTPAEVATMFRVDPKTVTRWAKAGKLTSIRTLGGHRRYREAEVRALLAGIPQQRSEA

[2] = system: T1, His6-BldC (Streptomyces coelicolor), ORF:188ed25c; assay: DNase I footprinting; settings: FP: 25 mM Tris pH 7.5, 150 mM NaCl, 1 nM F-DNA, 25 C; footprinting: 10 mM Tris HCl pH 7.8, 150 mM NaCl, 2 mM DTT, 1 ug poly(dI-dC), 10% glycerol (none for …)
[3] = system: T1, His6-BldC (Streptomyces coelicolor), ORF:188ed25c; assay: hydroxyl radical footprinting; settings: FP: 25 mM Tris pH 7.5, 150 mM NaCl, 1 nM F-DNA, 25 C; footprinting: 10 mM Tris HCl pH 7.8, 150 mM NaCl, 2 mM DTT, 1 ug poly(dI-dC), 10% glycerol (none for …)
[4] = target: His6-BldC (Streptomyces coelicolor) (UniProt A0A0M7QSG5); assay: fluorescence polarization; settings: FP: 25 mM Tris pH 7.5, 150 mM NaCl, 1 nM F-DNA, 25 C, footprinting: 10 mM Tris HCl pH 7.8, 150 mM NaCl, 2 mM DTT, 1 ug poly(dI-dC), 10% glycerol (none for …)
[5] = target: His6-BldC(E16R) (Streptomyces coelicolor) (UniProt A0A0M7QSG5); assay: fluorescence polarization; settings: FP: 25 mM Tris pH 7.5, 150 mM NaCl, 1 nM F-DNA, 25 C; footprinting: 10 mM Tris HCl pH 7.8, 150 mM NaCl, 2 mM DTT, 1 ug poly(dI-dC), 10% glycerol (none for …)
[6] = target: His6-SeMet BldC(L43M-L58M) (Streptomyces coelicolor) (UniProt A0A0M7QSG5); assay: fluorescence polarization; settings: FP: 25 mM Tris pH 7.5, 150 mM NaCl, 1 nM F-DNA, 25 C; footprinting: 10 mM Tris HCl pH 7.8, 150 mM NaCl, 2 mM DTT, 1 ug poly(dI-dC), 10% glycerol (none for …)
[7] = target: Tag-free BldC (Streptomyces coelicolor) (UniProt A0A0M7QSG5); assay: fluorescence polarization; settings: FP: 25 mM Tris pH 7.5, 150 mM NaCl, 1 nM F-DNA, 25 C; footprinting: 10 mM Tris HCl pH 7.8, 150 mM NaCl, 2 mM DTT, 1 ug poly(dI-dC), 10% glycerol (none for …)
[8] = stoichiometry 4:1, WT BldC, tag status not stated

## CGAGAGGATCATGTGAGTTCTCCTGGTTCACGGGGACAGTCACCATGAGTACTTCCAGGCTCACAGCATGTATCCATACGATAAAAGGTGCAAATGGGGGAAATTCGACCGAATTACCTCAGGTGGCGGAGCGCTCCTTGGGCCGCTCGGGTGTGCCGCGAGCCAGTACCCTGGCGGTTCAC (double strand) [smeA-sffA promoter PCR probe]
[1]
  binding: binds
[2]
  binding: binds
[3]
  binding: binds

## TAATTCGGTCGAATTTCCCCCATTTGCACCTTTTATCGTA (double strand) [smeA-ssfA site]
[4]; [8]
  pKd: 7.22

## TTCAATTCGGACAATTCGGACA / AATGTCCGAATTGTCCGAATTG [whiI opt 22mer (FP)]
[4]
  pKd: 7.74
[4]; stoichiometry 2:1 (Fig. 5a)
  pKd: 7.70
[5]
  pKd: 6.85
[6]
  pKd: 7.71
[7]
  pKd: 7.78

## TTCAATTCGCACAATTCGCACA / AATGTGCGAATTGTGCGAATTG [whiI opt bp 8 and 17 to C]
[4]
  pKd: 6.94

## TTCAATTCGTACAATTCGTACA / AATGTACGAATTGTACGAATTG [whiI opt bp 8 and 17 to T]
[4]
  pKd: 7.30

## ATTCGGACAATTCGGACAATTCGGACAATTCGGACA (double strand) [36mer opt]
[4]; [8]
  pKd: 7.70

## GAGAACGGACACCAGGCCTCCTGGGGTGCGGGGACGGGGCCGGCTCATGGGGTTTAAGCCGGGACGAACCGTGCTTTCAAGGTCACAGTCGTCTTCGGCACCGAACGCGTCCGCCTTTAGAGAATGATCACGATCTGGTGAGTAACAATCCGAGCAATTCGGACACACTGTCGATCATTCGAAGATCGAACGGTTCCGCACTTTGTCGATACGAGGCCGAAAGTGGCCGTGTCGACAAAGTGACGGAACCTCCTCCGGACGTGCGGACCCCCTGCCCGGAACGATGAACGACGGCTGG (double strand) [whiI promoter PCR probe]
[2]
  binding: binds
